Columns and labels:
human IL-4RA-hFc [1] = molecular target: T1, human IL-4RA-hFc (human, UniProt P24394 26-232); experiment: competitive ELISA, competitor IL4-N-His (anti-His signal); antibody 3 ug/mL
T1 construct: mature; no linker is stated
T1 sequence (looked up): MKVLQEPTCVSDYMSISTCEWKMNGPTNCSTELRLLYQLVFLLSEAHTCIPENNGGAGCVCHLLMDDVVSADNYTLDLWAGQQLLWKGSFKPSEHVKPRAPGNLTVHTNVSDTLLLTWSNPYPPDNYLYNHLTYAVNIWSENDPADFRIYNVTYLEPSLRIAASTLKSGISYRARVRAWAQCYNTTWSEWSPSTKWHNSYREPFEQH
Protocol: (§1) The Elisa plates were coated with human IL-4RA-hFc and blocked before the target antibodies were added. […] After the plates were washed, mouse anti-His, HRP (purchased from CoWin Biosciences, Cat No. CW0285A) was added for incubation. The plates were subjected to another wash. A chromogenic reaction was performed by adding TMB (Neogen, 308177) and was then terminated. The Elisa plates were put into a microplate reader immediately, and the OD value of each well in the Elisa plates was read at 450 nm. The data were analyzed and processed by SoftMax Pro 6.2.1.

human IL-4RA-hFc [2] = molecular target: T1, human IL-4RA-hFc; experiment: indirect ELISA, coated IL-4RA-hFc 1 ug/mL, 4-parameter fit
Protocol: Procedures: The Elisa plates were coated with human IL-4RA-hFc or human IL-4RA-mFc and were incubated, and the target antibodies were added after blocking. […] The plates were incubated and washed before TMB (Neogen, 308177) was added for chromogenic reaction. At the end of the reaction, the absorbance at 450 nm was measured by a microplate reader. The data were analyzed and processed by SoftMax Pro 6.2.1.

human IL-4RA-hFc [3] = molecular target: T1, human IL-4RA-hFc; experiment: competitive ELISA, competitor IL4-N-His, coated IL-4RA-hFc, 4-parameter fit
Protocol: as §1
By 4-parameter logistic regression of absorbance vs. antibody concentration, the blocking EC₅₀ of the antibodies was calculated.

OD 450 nm (human IL-4RA-hFc [1]): 0.053 OD
EC50 (human IL-4RA-hFc [2]): 0.084 nM
EC50 (human IL-4RA-hFc [3]): 3 nM
B1: anti-human IL-4RA antibody 13E5 (antibody, V domains shown)
VH: EVQLQQSGPELVKPGASVKISCKTSGYTFTEYTIHWVKQNHGKSLEWIGGINPNNGGTVYNQNFKGKATLTVDKSSSTAYMELRSLTSEDSAVYYCARVRRGMDYWGQGTSVTVSS
VL: DIVMTQSHKFMSTSVGDRVSITCKASQDVTTAVAWYQQKPGQSPKLLIYSASYRYTGVPDRFTGSGSGTDFTFTISSVQAEDLAVYYCQQHYSAPWTFGGGTNLEIK
notes: also called murine antibody 13E5; monoclonal antibody of hybridoma cell line LT008 (IL-4RA-13E5), CCTCC NO: C2018131

Reference: patent US20250304703A1 (AKESO BIOPHARMA, published 2025)
